Experiments:
[1] = system: β-conglutin (lupin (species not stated)); assay: MST; details: 0.05% Tween-20, 25 C, Hill EC50 fit, PBS (10 mM phosphate, 135 mM NaCl, 2.7 mM KCl, pH 7.4) + 1.5 mM MgCl2, MST +0.05% Tween-20, 25 C (20 mM KCl for TT derivatives), BLI +0.1% Tween-20, 30 C, SPR …
[2] = system: β-conglutin (lupin (species not stated)); assay: SPR; details: 1:1 kinetic model, protein immobilized, PBS (10 mM phosphate, 135 mM NaCl, 2.7 mM KCl, pH 7.4) + 1.5 mM MgCl2, MST +0.05% Tween-20, 25 C (20 mM KCl for TT derivatives), BLI +0.1% Tween-20, 30 C
[3] = system: β-conglutin (lupin (species not stated)); assay: BLI; details: 2:1 heterogeneous model, 30 C, 0.1% Tween-20, 5' TEG spacer, PBS (10 mM phosphate, 135 mM NaCl, 2.7 mM KCl, pH 7.4) + 1.5 mM MgCl2, MST +0.05% Tween-20, 25 C (20 mM KCl for TT derivatives), BLI +0.1% Tween-20, 30 C, SPR …

Sequence	Kd [2]	Kd ([1]; 20 mM KCl)	further results
GGTGGGGGTGG [Cy5-11-mer]	–	–	Kd ([1]; binding buffer): 1.05 nM
GGTGGGGGTGGTT [11-mer-TT]	84.9 nM	–	–
GGTGGGGGTGGTT [Cy5-11-mer-TT]	–	2.59 nM	–
TTGGTGGGGGTGG [Cy5-TT-11-mer]	–	1.88 nM	–
TTGGTGGGGGTGG [TT-11-mer]	7.28 nM	–	–
TTGGTGGGGGTGGTT [Cy5-TT-11-mer-TT]	–	2.71 nM	–
TTGGTGGGGGTGGTT [TT-11-mer-TT]	53.7 nM	–	–
TTTTTTTTTTTTTTTGGTGGGGGTGG [Biotin-TEG-T15-11-mer]	–	–	Kd ([3]; first KD): 6.95 nM; Kd ([3]; second KD): 23.3 nM
